In patent publication EP1142907A1:

Biological target: GAL4-CREBΔLZ fusion protein
Experiment: cell-based or functional assay

transactivation of the pG5CAT reporter after caffeine in HEK293 cells: < 45 fold
Substance: transcriptional coactivator CBP (CREB-binding protein)
